Patent US20110195069A1

Tests used:
[1] = molecular target: factor D/VDA (human factor D mutant V113E, D116E, A118P) (human) (UniProt P00746); assay: ELISA: wells coated with recombinant factor D protein at 0.5 µg/ml, serially diluted MAb 166-32, HRP goat anti-mouse IgG (Fc), OD450
[2] = molecular target: factor D/Pighu (pig-human factor D hybrid) (pig; human) (UniProt P00746); assay: as above
[3] = molecular target: dog factor D (in dog serum) (dog); assay: cell-based or functional assay; settings: scale: times less effective than for human factor D
[4] = molecular target: baboon factor D (in baboon serum) (baboon); assay: cell-based or functional assay
[5] = molecular target: human factor D (purified from human serum, or as present in human serum/plasma) (human) (UniProt P00746); assay: cell-based or functional assay
[6] = molecular target: human factor D (purified from human serum, or as present in human serum/plasma) (human) (UniProt P00746); assay: ELISA: wells coated with purified human factor D, serially diluted MAb, HRP goat anti-mouse IgG (Fc), OD450

Work on MAb 166-32 (antibody) yielded an EC50 (read off the curve) [1] of 0.02 µg/mL, an EC50 (read off the curve) [2] of 0.02 µg/mL and a neutralization of dog factor D in hemolytic assays, compared to human factor D [3] greater than 10. The inhibition of alternative complement hemolytic activity (rabbit red blood cells) of plasma samples from baboons given 5 mg/kg Mab 166-32, 18 hours after CPB [4] was 79.3%, the alternative pathway hemolytic activity of plasma from extracorporeal circuits of human whole blood (molar ratio MAb : factor D) [5] was 1.5 and the inhibition of factor D dependent alternative pathway hemolysis of unsensitized rabbit RBCs (factor D depleted human serum supplemented with purified factor D) [5] was 0.3 µg/mL. For the same substance, the molar ratio (MAb 166-32 to factor D) for inhibition of factor D dependent hemolysis (molar ratio MAb 166-32 : factor D) [5] was 0.5 and the EC50 (read off the curve) [6] was 0.008 µg/mL.
